Data reported in the supplement of paper PMC7125110.
± gives the standard error. For some of these results: This sample holds only a part of the variants without activity.

B1: glmS ribozyme (parent)
chain: AUAAAAGCGCCAGAACUACAGAAAUGUAGUUGACGAGGAGGAGGUUUAUCGAAUUUUCGGCGGAUGCCUCCAAA

Key:
Conditions in all cases: with glucosamine-6-phosphate
glucosamine-6-phosphate [1] = variants of: B1; assay: kcat; higher = faster cleavage; RNA array
Outline: (§1)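 Tiles bearing barcoded ribozyme variants, transcribed in situ by E. coli RNA polymerase on sequenced MiSeq chips, were imaged over ~14 h at 37 °C using a hybridised Cy3 probe. Glucosamine-6-phosphate was supplied at 40 μM to 10 mM in HEPES/KCl/Mg(OAc)2 buffer. kobs came from one- or two-exponential decay fits to normalised per-tile medians, and weighted Michaelis–Menten fits then provided kcat and KM.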

glucosamine-6-phosphate [2] = variants of: B1; assay: self-cleavage kobs at 640 uM GlcN6P; higher = faster cleavage; RNA array
Outline: as §1

glucosamine-6-phosphate [3] = variants of: B1; assay: self-cleavage kobs at 10000 uM GlcN6P; higher = faster cleavage; RNA array
Outline: as §1

glucosamine-6-phosphate [4] = variants of: B1; assay: KM; higher = weaker cofactor use; RNA array
Outline: as §1

glucosamine-6-phosphate [5] = variants of: B1; assay: self-cleavage kobs at 40 uM GlcN6P; higher = faster cleavage; RNA array
Outline: as §1

glucosamine-6-phosphate [6] = variants of: B1; assay: self-cleavage kobs at 160 uM GlcN6P; higher = faster cleavage; RNA array
Outline: as §1

glucosamine-6-phosphate [7] = variants of: B1; assay: self-cleavage kobs at 2500 uM GlcN6P; higher = faster cleavage; RNA array
Outline: as §1

Row | Variant | kcat (glucosamine-6-phosphate [1]) | self-cleavage kobs at 640 uM GlcN6P (glucosamine-6-phosphate [2]) | self-cleavage kobs at 10000 uM GlcN6P (glucosamine-6-phosphate [3]) | KM (glucosamine-6-phosphate [4]) | self-cleavage kobs at 40 uM GlcN6P (glucosamine-6-phosphate [5]) | self-cleavage kobs at 160 uM GlcN6P (glucosamine-6-phosphate [6]) | self-cleavage kobs at 2500 uM GlcN6P (glucosamine-6-phosphate [7])
1 | U65C C67G | 6.8e-05 ± 3.8e-06 s⁻¹ | 5.5e-05 ± 1.4e-05 s⁻¹ | 6.72e-05 ± 8.1e-06 s⁻¹ |  |  |  | 
2 | A12U A15U | 0.0118 ± 0.0023 s⁻¹ | 0.00509 ± 0.00065 s⁻¹ | 0.00986 ± 0.0013 s⁻¹ | 1190 ± 320 µM | 0.000433 ± 4.6e-05 s⁻¹ | 0.0011 ± 0.00016 s⁻¹ | 0.00905 ± 0.0015 s⁻¹
3 | G38A U49A C58U | 2.37e-05 ± 3.2e-06 s⁻¹ |  |  | 862 ± 380 µM |  |  | 
4 | G66C C67G | 2.61e-05 ± 7.8e-06 s⁻¹ | 2.84e-05 ± 1.3e-05 s⁻¹ |  |  |  |  | 
5 | C10U G60A C71U | 1.14e-05 ± 1.1e-06 s⁻¹ |  |  | 2050 ± 570 µM |  |  | 
6 | C11G G59U | 0.000116 ± 2.9e-05 s⁻¹ |  | 9.62e-05 ± 1.5e-05 s⁻¹ |  |  |  | 0.000106 ± 2.1e-05 s⁻¹
7 | C10U A14G C68G | 3.32e-05 ± 9.4e-06 s⁻¹ |  |  |  |  |  | 
8 | C10U A39U | 1.59e-05 ± 5e-07 s⁻¹ | < 1e-05 s⁻¹ |  | 6310 ± 460 µM | < 1e-05 s⁻¹ | < 1e-05 s⁻¹ | 
9 | G29A U47C | 0.000269 ± 1.9e-05 s⁻¹ | 8.17e-05 ± 2.3e-05 s⁻¹ | 0.000233 ± 3.2e-05 s⁻¹ | 1400 ± 310 µM |  |  | 0.000223 ± 9.2e-05 s⁻¹
10 | U49G C70A | 1.52e-05 ± 2.5e-06 s⁻¹ |  |  |  |  |  | 
11 | C16A G62A | < 1e-05 s⁻¹ |  |  |  |  | < 1e-05 s⁻¹ | 
12 | G41U A64G | 0.000821 ± 6e-05 s⁻¹ | 0.00015 ± 2.3e-05 s⁻¹ | 0.000621 ± 4.9e-05 s⁻¹ | 2970 ± 430 µM |  | 3.5e-05 ± 9.6e-06 s⁻¹ | 0.000414 ± 5.2e-05 s⁻¹
13 | G60A C70G | 1.99e-05 ± 7.1e-06 s⁻¹ |  |  |  |  |  | 
14 | A48G U54G | 0.000141 ± 9.6e-06 s⁻¹ | 6.14e-05 ± 1.1e-05 s⁻¹ | 0.000127 ± 1.2e-05 s⁻¹ | 761 ± 180 µM |  |  | 0.000134 ± 2.5e-05 s⁻¹
15 | A15C A48U | 5.55e-05 ± 7.9e-06 s⁻¹ |  | 4.26e-05 ± 1.2e-05 s⁻¹ | 2840 ± 1100 µM | < 1e-05 s⁻¹ |  | 2.83e-05 ± 1.2e-05 s⁻¹
16 | C50U C68A C71U | 2.67e-05 ± 9.8e-06 s⁻¹ |  |  |  |  |  | 
17 | A6U A23C U30G | 5.38e-05 ± 1.9e-06 s⁻¹ |  | 4.19e-05 ± 1.6e-05 s⁻¹ | 2780 ± 300 µM |  |  | 
18 | G13A U31G | 0.000328 ± 7.1e-05 s⁻¹ |  | 0.000153 ± 2.2e-05 s⁻¹ |  |  |  | 6.35e-05 ± 1.5e-05 s⁻¹
19 | C11U U55G | 0.0019 ± 0.00039 s⁻¹ | 0.000351 ± 7.6e-05 s⁻¹ | 0.00164 ± 0.00016 s⁻¹ | 1700 ± 660 µM | 5.89e-05 ± 1.1e-05 s⁻¹ | 0.000214 ± 4.9e-05 s⁻¹ | 0.00137 ± 0.00026 s⁻¹
20 | C58U C61A | 6.3e-05 ± 2.6e-05 s⁻¹ | 0.000108 ± 3.4e-05 s⁻¹ |  |  |  | 6.42e-05 ± 1.7e-05 s⁻¹ | 7.93e-05 ± 1.5e-05 s⁻¹
21 | A39U A64U | 4.75e-05 ± 1.7e-06 s⁻¹ | 2.64e-05 ± 9.3e-06 s⁻¹ | 4.46e-05 ± 5.4e-06 s⁻¹ | 537 ± 120 µM |  |  | 4e-05 ± 7e-06 s⁻¹
